# Laboratory results reported in patent publication US20090093061A1.
# Assays:
# Assay in all cases: GroEL-490 bead column capture of denatured serum, ATP elution, LC-MS-MS
# [1] = target: apolipoprotein B precursor (Homo sapiens) (UniProt P04114)
# [2] = target: odd Oz/Ten-m homolog 3 (Homo sapiens) (UniProt Q9P273)
# [3] = target: SMC5 protein (Homo sapiens) (UniProt Q8IY18)
# [4] = target: apolipoprotein A-I precursor (Homo sapiens) (UniProt P02647)
# [5] = target: Rho GTPase activating protein 5 (Homo sapiens) (UniProt Q13017)
# [6] = target: RAN-binding protein 2-like 1 isoform 1 (Homo sapiens) (UniProt Q99666)
# [7] = target: zinc finger protein 28 (Homo sapiens) (UniProt Q8NHY6)
# [8] = target: stress 70 protein chaperone, microsome-associated, 60 kDa (Homo sapiens) (UniProt P48723)
# [9] = target: hypothetical protein FLJ35834 (Homo sapiens)
# [10] = target: myocardin-related transcription factor B (Homo sapiens) (UniProt Q9ULH7)
# [11] = target: coronin, actin binding protein, 1B (Homo sapiens) (UniProt Q9BR76)
# [12] = target: MAX dimerization protein 5 (Homo sapiens) (UniProt Q8IWI9)
# [13] = target: triple functional domain (PTPRF interacting) (Homo sapiens) (UniProt O75962)
# [14] = target: alpha 2 macroglobulin precursor (Homo sapiens) (UniProt P01023)
# Sequence of alpha 2 macroglobulin precursor (Homo sapiens) (P01023 24-1474 limits assumed): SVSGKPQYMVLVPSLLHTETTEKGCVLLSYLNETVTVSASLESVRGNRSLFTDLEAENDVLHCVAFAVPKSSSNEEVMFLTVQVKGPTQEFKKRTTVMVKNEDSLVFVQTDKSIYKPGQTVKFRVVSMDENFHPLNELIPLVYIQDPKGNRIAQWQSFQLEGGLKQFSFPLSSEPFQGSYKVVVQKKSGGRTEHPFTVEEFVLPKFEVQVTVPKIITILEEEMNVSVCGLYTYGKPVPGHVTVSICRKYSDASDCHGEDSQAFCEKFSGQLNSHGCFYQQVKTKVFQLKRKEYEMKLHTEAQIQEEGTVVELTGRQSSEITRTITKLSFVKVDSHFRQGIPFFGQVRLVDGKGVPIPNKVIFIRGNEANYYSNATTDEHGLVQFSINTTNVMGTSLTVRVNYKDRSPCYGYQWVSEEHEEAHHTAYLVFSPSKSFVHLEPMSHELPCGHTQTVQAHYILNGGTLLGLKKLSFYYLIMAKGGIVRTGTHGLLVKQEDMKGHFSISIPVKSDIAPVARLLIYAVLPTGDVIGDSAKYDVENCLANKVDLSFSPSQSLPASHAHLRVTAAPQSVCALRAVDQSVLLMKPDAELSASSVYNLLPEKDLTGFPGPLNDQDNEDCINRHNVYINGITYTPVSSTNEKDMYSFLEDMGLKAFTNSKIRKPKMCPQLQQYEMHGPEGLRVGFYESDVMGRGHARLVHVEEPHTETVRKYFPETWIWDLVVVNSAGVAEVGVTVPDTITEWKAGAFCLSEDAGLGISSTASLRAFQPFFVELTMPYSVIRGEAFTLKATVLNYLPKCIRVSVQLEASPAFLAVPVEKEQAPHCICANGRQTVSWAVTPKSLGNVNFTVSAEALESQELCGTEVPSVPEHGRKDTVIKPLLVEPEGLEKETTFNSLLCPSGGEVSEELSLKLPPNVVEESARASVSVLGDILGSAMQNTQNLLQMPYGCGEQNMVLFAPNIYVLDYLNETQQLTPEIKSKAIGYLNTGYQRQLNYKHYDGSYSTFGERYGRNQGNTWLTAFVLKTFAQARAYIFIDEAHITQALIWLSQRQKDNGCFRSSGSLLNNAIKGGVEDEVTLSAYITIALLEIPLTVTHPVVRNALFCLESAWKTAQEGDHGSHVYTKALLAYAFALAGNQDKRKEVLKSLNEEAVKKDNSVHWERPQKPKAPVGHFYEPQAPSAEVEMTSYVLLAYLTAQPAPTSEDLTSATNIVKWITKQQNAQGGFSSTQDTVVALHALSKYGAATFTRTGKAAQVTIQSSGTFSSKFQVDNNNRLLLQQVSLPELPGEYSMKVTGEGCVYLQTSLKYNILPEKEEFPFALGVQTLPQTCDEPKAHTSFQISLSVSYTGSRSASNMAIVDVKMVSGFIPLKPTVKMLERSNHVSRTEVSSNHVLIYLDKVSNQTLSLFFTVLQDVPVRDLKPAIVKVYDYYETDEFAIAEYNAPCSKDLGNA
# [15] = target: integrin, beta 5 (Homo sapiens) (UniProt P18084)
# Sequence of integrin, beta 5 (Homo sapiens) (P18084 24-799 limits assumed): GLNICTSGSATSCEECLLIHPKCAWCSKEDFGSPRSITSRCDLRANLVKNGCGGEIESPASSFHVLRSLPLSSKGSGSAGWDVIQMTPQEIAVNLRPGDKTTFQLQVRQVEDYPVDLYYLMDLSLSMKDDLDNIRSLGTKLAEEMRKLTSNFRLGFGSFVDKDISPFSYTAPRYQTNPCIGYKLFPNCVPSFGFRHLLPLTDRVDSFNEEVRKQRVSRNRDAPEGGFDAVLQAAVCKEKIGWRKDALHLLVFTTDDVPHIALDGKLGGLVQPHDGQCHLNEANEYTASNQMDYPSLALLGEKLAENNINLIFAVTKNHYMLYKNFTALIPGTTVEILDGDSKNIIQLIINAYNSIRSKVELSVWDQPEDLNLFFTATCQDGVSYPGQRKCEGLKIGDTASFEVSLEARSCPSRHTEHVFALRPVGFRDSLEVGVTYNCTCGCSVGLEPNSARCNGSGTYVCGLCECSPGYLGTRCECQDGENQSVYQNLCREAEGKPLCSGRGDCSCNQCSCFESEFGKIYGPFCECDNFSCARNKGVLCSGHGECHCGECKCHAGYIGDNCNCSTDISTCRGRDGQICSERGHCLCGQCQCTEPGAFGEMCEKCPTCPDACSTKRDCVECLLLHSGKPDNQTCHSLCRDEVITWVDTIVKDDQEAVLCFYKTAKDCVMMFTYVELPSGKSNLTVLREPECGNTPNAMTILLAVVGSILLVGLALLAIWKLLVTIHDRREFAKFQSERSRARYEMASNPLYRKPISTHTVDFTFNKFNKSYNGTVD
# [16] = target: brefeldin A-inhibited guanine nucleotide-exchange protein 1 (Homo sapiens) (UniProt Q9Y6D6)
# [17] = target: hemopexin (Homo sapiens) (UniProt P02790)
# [18] = target: similar to Ig alpha-2 chain C region (Homo sapiens) (UniProt P25787)
# Sequence of similar to Ig alpha-2 chain C region (Homo sapiens) (P25787 2-234 limits assumed): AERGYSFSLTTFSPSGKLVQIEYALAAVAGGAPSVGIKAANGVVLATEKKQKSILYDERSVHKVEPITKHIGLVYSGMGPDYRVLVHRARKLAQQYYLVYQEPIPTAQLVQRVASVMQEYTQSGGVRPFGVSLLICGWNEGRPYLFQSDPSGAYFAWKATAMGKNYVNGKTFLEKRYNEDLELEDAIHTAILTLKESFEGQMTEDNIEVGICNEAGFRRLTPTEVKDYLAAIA
# [19] = target: retinoblastoma binding protein 8 isoform b (Homo sapiens) (UniProt Q99708)
# [20] = target: complement component 3 precursor (Homo sapiens) (UniProt P01024)
# [21] = target: MAP/ERK kinase kinase 4 isoform a (Homo sapiens) (UniProt Q9Y6R4)
# [22] = target: bassoon (Homo sapiens) (UniProt Q9UPA5)
# [23] = target: similar to BC331191_1 (Homo sapiens)
# [24] = target: zinc finger protein 469 (Homo sapiens) (UniProt Q96JG9)
# [25] = target: similar to KIAA1074 protein (Homo sapiens) (UniProt Q9UPS8)
# [26] = target: insulin-like 6 precursor (Homo sapiens) (UniProt Q9Y581)
# Sequence of insulin-like 6 precursor (Homo sapiens) (Q9Y581 21-213 limits assumed): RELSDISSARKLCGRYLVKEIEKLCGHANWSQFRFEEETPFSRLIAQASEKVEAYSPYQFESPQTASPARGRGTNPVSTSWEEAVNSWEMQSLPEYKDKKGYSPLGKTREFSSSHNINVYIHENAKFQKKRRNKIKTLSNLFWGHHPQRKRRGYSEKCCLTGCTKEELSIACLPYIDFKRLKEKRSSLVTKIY
# [27] = target: hypothetical protein XP_376158 (Homo sapiens)
# [28] = target: KIAA0804 protein (Homo sapiens) (UniProt Q8N3P4)
# [29] = target: Rho GTPase activating protein 21 (Homo sapiens) (UniProt Q5T5U3)
# [30] = target: synovial sarcoma, X breakpoint 2 isoform a (Homo sapiens) (UniProt Q16385)
# [31] = target: kinesin family member 23 isoform 1 (Homo sapiens) (UniProt Q02241)
# [32] = target: ceruloplasmin (ferroxidase) (Homo sapiens) (UniProt P00450)
# [33] = target: LUC7-liKe 2 (Homo sapiens) (UniProt Q9Y383)
# [34] = target: apical protein of Xenopus-like (Homo sapiens) (UniProt Q13796)
# Sequence of apical protein of Xenopus-like (Homo sapiens) (Q13796 whole entry, canonical isoform): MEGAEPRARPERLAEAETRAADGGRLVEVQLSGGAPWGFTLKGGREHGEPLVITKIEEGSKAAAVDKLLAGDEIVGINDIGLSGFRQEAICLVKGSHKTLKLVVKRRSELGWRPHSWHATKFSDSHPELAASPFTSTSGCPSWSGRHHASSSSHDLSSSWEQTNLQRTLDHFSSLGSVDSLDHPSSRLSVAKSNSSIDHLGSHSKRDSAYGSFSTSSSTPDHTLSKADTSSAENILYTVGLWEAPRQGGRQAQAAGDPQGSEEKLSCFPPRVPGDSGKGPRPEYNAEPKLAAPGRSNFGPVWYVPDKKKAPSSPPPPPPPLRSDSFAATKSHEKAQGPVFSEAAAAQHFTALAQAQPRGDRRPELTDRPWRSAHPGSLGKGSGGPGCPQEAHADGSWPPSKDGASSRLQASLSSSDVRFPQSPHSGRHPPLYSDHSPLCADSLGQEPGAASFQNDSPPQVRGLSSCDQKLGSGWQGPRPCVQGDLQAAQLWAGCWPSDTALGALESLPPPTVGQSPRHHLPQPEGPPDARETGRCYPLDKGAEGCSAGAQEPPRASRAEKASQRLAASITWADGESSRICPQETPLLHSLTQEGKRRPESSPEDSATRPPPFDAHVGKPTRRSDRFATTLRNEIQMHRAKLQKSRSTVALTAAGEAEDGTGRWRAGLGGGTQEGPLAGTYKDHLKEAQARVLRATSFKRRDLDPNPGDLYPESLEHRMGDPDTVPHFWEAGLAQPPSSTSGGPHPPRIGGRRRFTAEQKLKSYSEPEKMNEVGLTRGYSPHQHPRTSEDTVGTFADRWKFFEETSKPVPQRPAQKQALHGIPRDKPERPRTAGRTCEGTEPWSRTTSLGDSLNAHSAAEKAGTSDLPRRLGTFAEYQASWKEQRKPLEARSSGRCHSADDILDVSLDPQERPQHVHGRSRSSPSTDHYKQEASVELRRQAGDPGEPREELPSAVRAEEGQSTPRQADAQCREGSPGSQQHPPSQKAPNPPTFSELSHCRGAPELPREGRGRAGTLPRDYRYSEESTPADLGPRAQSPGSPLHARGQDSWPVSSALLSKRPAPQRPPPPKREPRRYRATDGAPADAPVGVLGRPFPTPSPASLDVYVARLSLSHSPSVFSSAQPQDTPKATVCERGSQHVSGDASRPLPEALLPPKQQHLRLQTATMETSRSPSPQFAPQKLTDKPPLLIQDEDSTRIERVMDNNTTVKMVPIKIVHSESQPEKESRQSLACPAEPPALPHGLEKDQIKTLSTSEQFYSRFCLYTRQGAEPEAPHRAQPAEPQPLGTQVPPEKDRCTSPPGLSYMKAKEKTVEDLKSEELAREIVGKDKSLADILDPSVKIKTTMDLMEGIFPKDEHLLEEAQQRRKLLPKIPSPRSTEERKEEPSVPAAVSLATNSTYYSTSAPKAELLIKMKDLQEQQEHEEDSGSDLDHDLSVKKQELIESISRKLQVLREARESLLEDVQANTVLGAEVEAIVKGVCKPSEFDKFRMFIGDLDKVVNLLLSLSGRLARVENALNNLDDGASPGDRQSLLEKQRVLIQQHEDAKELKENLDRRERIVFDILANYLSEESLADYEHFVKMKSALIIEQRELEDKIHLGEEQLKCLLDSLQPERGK
# [35] = target: ATPase, H+ transporting, lysosomal V0 subunit a isoform 2 (Homo sapiens) (UniProt Q9Y487)
# Sequence of GroEL having Aspartate 490 substituted with Cysteine, biotinylated and conjugated onto NeutrAvidin beads (A1AJ51 whole entry D490C): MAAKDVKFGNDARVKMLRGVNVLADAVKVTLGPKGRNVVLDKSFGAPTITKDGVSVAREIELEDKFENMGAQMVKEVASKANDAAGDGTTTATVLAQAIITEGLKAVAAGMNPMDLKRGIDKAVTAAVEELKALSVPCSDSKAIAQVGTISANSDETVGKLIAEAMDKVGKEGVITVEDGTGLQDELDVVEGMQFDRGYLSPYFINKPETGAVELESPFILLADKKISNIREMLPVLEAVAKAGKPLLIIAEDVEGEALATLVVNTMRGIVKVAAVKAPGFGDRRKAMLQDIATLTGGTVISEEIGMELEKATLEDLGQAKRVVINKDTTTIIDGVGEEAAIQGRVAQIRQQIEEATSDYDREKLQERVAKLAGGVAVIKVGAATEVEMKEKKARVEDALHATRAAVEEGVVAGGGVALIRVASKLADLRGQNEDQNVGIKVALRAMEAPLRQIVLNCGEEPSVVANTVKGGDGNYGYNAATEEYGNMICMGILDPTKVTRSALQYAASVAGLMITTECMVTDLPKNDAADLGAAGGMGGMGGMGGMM
# Sequence of apolipoprotein A-I precursor (Homo sapiens) (P02647 25-267 limits assumed): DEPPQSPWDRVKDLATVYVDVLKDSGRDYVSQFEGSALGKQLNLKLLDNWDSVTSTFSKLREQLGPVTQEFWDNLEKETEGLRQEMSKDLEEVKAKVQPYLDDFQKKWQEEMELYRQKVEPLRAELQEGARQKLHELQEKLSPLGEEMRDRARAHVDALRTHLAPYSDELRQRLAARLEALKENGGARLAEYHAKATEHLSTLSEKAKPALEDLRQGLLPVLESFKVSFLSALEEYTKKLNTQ
substance,measurement,setting,value
"GroEL having Aspartate 490 substituted with Cysteine, biotinylated and conjugated onto NeutrAvidin beads (from UniProt A1AJ51 1-548)",Spectrum Count,[1],19 count
same,Spectrum Count,[2],14 count
same,Spectrum Count,[3],9 count
same,Spectrum Count,[4],13 count
same,Spectrum Count,[5],12 count
same,Spectrum Count,[6],11 count
same,Spectrum Count,[7],18 count
same,Spectrum Count,[8],12 count
same,Spectrum Count,[9],9 count
same,Spectrum Count,[10],16 count
same,Spectrum Count,[11],28 count
same,Spectrum Count,[12],33 count
same,Spectrum Count,[13],14 count
same,Spectrum Count,[14],43 count
same,Spectrum Count,[15],9 count
same,Spectrum Count,[16],11 count
same,Spectrum Count,[17],35 count
same,Spectrum Count,[18],19 count
same,Spectrum Count,[19],22 count
same,Spectrum Count,[20],43 count
same,Spectrum Count,[21],13 count
same,Spectrum Count,[22],12 count
same,Spectrum Count,[23],19 count
same,Spectrum Count,[24],13 count
same,Spectrum Count,[25],28 count
same,Spectrum Count,[26],13 count
same,Spectrum Count,[27],15 count
same,Spectrum Count,[28],13 count
same,Spectrum Count,[29],11 count
same,Spectrum Count,[30],21 count
same,Spectrum Count,[31],53 count
same,Spectrum Count,[32],19 count
same,Spectrum Count,[33],15 count
same,Spectrum Count,[34],11 count
same,Spectrum Count,[35],12 count
